Measurements reported in publication PMC7722742, “Structure of native glycolipoprotein filaments in honeybee royal jelly” (Nature Communications, 2020).

T1: MRJP1_4/apisimin4 hetero-octamer (native royal jelly filament) (Apis mellifera, UniProt O18330+Q8ISL8)
T1 construct: gene Mrjp1; native, purified from commercial royal jelly (Bio-Gelee Royale) at pH 4.0; N-glycosylated (Asn28, Asn144, Asn177); signal peptides removed; N-termini NILRGE (MRJP1) and KTSISV (apisimin); model residues 20-431 of MRJP1 and 33-76 of apisimin; 4:4 hetero-octamers stacked into helical filaments
T1 sequence (O18330 20-432): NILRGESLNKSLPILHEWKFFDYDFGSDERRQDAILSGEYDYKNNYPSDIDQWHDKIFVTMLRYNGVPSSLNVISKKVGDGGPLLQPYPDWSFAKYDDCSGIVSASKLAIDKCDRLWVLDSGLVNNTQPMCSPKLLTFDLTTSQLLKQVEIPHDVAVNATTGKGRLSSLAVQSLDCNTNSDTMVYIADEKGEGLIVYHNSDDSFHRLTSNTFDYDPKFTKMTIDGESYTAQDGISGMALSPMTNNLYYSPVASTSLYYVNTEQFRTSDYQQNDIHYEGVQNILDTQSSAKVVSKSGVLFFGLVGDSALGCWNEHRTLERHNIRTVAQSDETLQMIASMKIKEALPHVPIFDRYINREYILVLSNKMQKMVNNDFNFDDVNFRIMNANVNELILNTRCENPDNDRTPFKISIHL
T1 sequence (Q8ISL8 25-78): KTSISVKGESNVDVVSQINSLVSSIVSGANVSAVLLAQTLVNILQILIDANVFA

B1: major royal jelly protein 1 (natural protein, Apis mellifera, UniProt O18330 20-432, looked up)
chain: NILRGESLNKSLPILHEWKFFDYDFGSDERRQDAILSGEYDYKNNYPSDIDQWHDKIFVTMLRYNGVPSSLNVISKKVGDGGPLLQPYPDWSFAKYDDCSGIVSASKLAIDKCDRLWVLDSGLVNNTQPMCSPKLLTFDLTTSQLLKQVEIPHDVAVNATTGKGRLSSLAVQSLDCNTNSDTMVYIADEKGEGLIVYHNSDDSFHRLTSNTFDYDPKFTKMTIDGESYTAQDGISGMALSPMTNNLYYSPVASTSLYYVNTEQFRTSDYQQNDIHYEGVQNILDTQSSAKVVSKSGVLFFGLVGDSALGCWNEHRTLERHNIRTVAQSDETLQMIASMKIKEALPHVPIFDRYINREYILVLSNKMQKMVNNDFNFDDVNFRIMNANVNELILNTRCENPDNDRTPFKISIHL
modifications: N-linked glycans at Asn28, Asn144 and Asn177 (modelled: one NAG at Asn28, two NAG at Asn144, two NAG plus a BMA at Asn177)
notes: major royal jelly protein 1 (MRJP1), honeybee Apis mellifera, native glycoprotein from royal jelly; the final model holds residues 20-431; Native protein; in the filament it stands with apisimin, 24-methylenecholesterol and further unassigned lipids; also called MRJP1; MRPJ1; source: purified from commercially available royal jelly as RJ filaments (ammonium sulfate precipitation, SEC at pH 4.0)
B2: apisimin (natural protein, Apis mellifera, UniProt Q8ISL8 25-78, looked up)
chain: KTSISVKGESNVDVVSQINSLVSSIVSGANVSAVLLAQTLVNILQILIDANVFA
notes: apisimin, small (5 kDa) royal jelly protein, honeybee Apis mellifera, native; the final model holds residues 33-76; Native protein, co-purified with MRJP1 in the filaments; also called apimisin; source: purified from commercially available royal jelly as RJ filaments (ammonium sulfate precipitation, SEC at pH 4.0)

Tests used:
[1] = target: T1, MRJP1_4/apisimin4 hetero-octamer (native royal jelly filament); assay: cryo-EM helical reconstruction, […] A; type: binding; settings: pH 4.0; native co-purified lipid, 8 per MRJP1_4/apisimin4 unit; built starting from crystal structure PDB 5yyl
[2] = target: the molecule itself; assay: cryo-EM structure; real-space helical reconstruction of native RJ filaments purified at pH 4.0 (10 mM formic acid-NaOH pH 4.0, 150 mM NaCl), graphene oxide-coated grids, 3.5 Å
apisimin = target: B2; assay: quantitative Edman sequencing; purified RJ filaments (SEC fractions above 500 kDa, pH 4.0); six degradation cycles; molar ratio of the MRJP1 and apisimin residues; settings: both partners purified
[3] = target: B1; assay: cryo-EM structure; real-space helical reconstruction of native RJ filaments purified at pH 4.0 (10 mM formic acid-NaOH pH 4.0, 150 mM NaCl), graphene oxide-coated grids, 3.5 Å; settings: both partners purified

Molecule | cryo-EM helical reconstruction, 3.5 A [1] | binding result [2] | stoichiometry N (apisimin) | binding result [3]
C=C(CC[C@@H](C)[C@H]1CC[C@H]2[C@@H]3CC=C4C[C@@H](O)CC[C@]4(C)[C@H]3CC[C@]12C)C(C)C [24-methylenecholesterol] | Apisimin is colored in red, 24-methylenecholesterol in blue, and N-glycans in silver. | – | – | –
B1 | – | binds | 1.15 ± 0.32 molar ratio MRJP1/apisimin | –
B2 | – | binds | – | binds
